B1: Interferon regulatory factor 3 (Homo sapiens), Q14653 (parent)
chain: MGTPKPRILPWLVSQLDLGQLEGVAWVNKSRTRFRIPWKHGLRQDAQQEDFGIFQAWAEATGAYVPGRDKPDLPTWKRNFRSALNRKEGLRLAEDRSKDPHDPHKIYEFVNSGVGDFSQPDTSPDTNGGGSTSDTQEDILDELLGNMVLAPLPDPGPPSLAVAPEPCPQPLRSPSLDNPTPFPNLGPSENPLKRLLVPGEEWEFEVTAFYRGRQVFQQTISCPEGLRLVGSEVGDRTLPGWPVTLPDPGMSLTDRGVMSYVRHVLSCLGGGLALWRAGQWLWAQRLGHCHTYWAVSEELLPNSGHGPDGEVPKDKEGGVFDLGPFIVDLITFTEGSGRSPRYALWFCVGESWPQDQPWTKRLVMVKVVPTCLRALVEMARVGGASSLENTVDLHISNSHPLSLTSDQYKAYLQDLVEGMDFQGPGES

Variants of: B1
Conditions: with cbp_human CREBBP

Row | effect of a mutation on the interaction | Variant
1 | increasing interaction strength | S396D;S398D;S402D;T404D;S405D

From IntAct's records for PubMed 20581830
